Legend:
[1] = target: Gα13 (GNA13, full-length, from the cDNA resource center) (UniProt Q14344)
[2] = target: Gα13 (GNA13, full-length, from the cDNA resource center) (UniProt Q14344); remark: listed apart in the source
[3] = target: Gα13 (GNA13, full-length, from the cDNA resource center) (UniProt Q14344); remark: listed apart in the source
[4] = target: Gα12 (GNA12, full-length, from the cDNA resource center) (UniProt Q03113)
[5] = target: Gα12 (GNA12, full-length, from the cDNA resource center) (UniProt Q03113); remark: listed apart in the source
[6] = target: Gα12 (GNA12, full-length, from the cDNA resource center) (UniProt Q03113); remark: listed apart in the source

UniProt Q03113, sequence (Q03113 whole entry): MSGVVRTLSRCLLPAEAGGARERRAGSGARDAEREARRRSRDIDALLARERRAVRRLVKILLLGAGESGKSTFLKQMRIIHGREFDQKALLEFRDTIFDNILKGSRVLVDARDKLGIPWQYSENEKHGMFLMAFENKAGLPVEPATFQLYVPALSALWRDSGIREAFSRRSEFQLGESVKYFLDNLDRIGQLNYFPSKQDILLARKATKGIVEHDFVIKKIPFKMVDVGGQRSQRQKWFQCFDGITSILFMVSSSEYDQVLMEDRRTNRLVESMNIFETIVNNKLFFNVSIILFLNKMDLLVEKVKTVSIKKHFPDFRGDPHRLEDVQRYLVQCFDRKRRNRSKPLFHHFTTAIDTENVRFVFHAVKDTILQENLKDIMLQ
UniProt Q14344, sequence (Q14344 whole entry): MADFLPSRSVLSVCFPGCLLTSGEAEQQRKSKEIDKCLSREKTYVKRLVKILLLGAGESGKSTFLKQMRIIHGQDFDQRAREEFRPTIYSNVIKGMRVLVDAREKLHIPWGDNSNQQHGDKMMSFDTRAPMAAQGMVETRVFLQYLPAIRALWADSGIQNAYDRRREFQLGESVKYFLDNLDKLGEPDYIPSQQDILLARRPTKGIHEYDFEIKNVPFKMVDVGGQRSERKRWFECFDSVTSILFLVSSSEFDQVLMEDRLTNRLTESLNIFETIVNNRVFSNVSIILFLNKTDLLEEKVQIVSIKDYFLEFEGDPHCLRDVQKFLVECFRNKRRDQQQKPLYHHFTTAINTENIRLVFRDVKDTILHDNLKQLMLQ

**Q.** Which results are given for “PDZ-RhoGEF-RlucII (Gα12/13 binding domain of human PDZ-RhoGEF, residues 281–483) (from UniProt O15085 281-483) (domain or fragment)”?
**A.** ebBRET between PDZ-RhoGEF-RlucII and rGFP-CAAX, ΔGα12/13 cells with Gα13 and GPR56-T383A, time course after 20 nM 10C7, ΔBRET max [1]: 0.5 ΔBRET; ebBRET between PDZ-RhoGEF-RlucII and rGFP-CAAX (recruitment to the plasma membrane), ΔGα12/13 cells with Gα13, constitutive, GPR56-WT DNA up to 250 ng; no increase without Gα13 [2]: 0.44 BRET ratio; ebBRET between PDZ-RhoGEF-RlucII and rGFP-CAAX, ΔGα12/13 cells with Gα13 and GPR56-WT, time course after 20 nM 10C7, maximal ΔBRET after 24 min [3]: 0.7 ΔBRET

B1: p115-RhoGEF-RlucII (Gα12/13 binding domain of human p115-RhoGEF, residues 1–244) (domain or fragment)
chain: MEDFARGAASPGPSRPGLVPVSIIGAEDEDFENELETNSEEQNSQFQSLEQVKRRPAHLMALLQHVALQFEPGPLLCCLHADMLGSLGPKEAKKAFLDFYHSFLEKTAVLRVPVPPNVAFELDRTRADLISEDVQRRFVQEVVQSQQVAVGRQLEDFRSKRLMGMTPWEQELAQLEAWVGRDRASYEARERHVAERLLMHLEEMQHTISTDEEKSAAVVNAIGLYMRHLGVRTKSGDKKSGRNF
**Q.** With B1 as the molecule, how does the ebBRET between p115-RhoGEF-RlucII and rGFP-CAAX, ΔGα12/13 cells with Gα12 and GPR56-T383A, time course after 20 nM 10C7, ΔBRET max [4] read?
**A.** 0.2 ΔBRET

**Q.** What about the ebBRET between p115-RhoGEF-RlucII and rGFP-CAAX (recruitment to the plasma membrane), ΔGα12/13 cells with Gα12, constitutive, GPR56-WT DNA up to 250 ng; no increase without Gα12 [5] of the same molecule?
**A.** 0.44 BRET ratio

**Q.** And the ebBRET between p115-RhoGEF-RlucII and rGFP-CAAX, ΔGα12/13 cells with Gα12, constitutive, increasing GPR56-T383A DNA, maximum [5]?
**A.** 0.228 BRET ratio

**Q.** What about the ebBRET between p115-RhoGEF-RlucII and rGFP-CAAX, ΔGα12/13 cells with Gα12 and GPR56-WT, time course after 20 nM 10C7, maximum ΔBRET at 8 min [6] of the same molecule?
**A.** 0.19 ΔBRET
